This assay addresses T1, human RXFP1 (human, UniProt Q9HBX9 1-757).
T1 sequence (looked up): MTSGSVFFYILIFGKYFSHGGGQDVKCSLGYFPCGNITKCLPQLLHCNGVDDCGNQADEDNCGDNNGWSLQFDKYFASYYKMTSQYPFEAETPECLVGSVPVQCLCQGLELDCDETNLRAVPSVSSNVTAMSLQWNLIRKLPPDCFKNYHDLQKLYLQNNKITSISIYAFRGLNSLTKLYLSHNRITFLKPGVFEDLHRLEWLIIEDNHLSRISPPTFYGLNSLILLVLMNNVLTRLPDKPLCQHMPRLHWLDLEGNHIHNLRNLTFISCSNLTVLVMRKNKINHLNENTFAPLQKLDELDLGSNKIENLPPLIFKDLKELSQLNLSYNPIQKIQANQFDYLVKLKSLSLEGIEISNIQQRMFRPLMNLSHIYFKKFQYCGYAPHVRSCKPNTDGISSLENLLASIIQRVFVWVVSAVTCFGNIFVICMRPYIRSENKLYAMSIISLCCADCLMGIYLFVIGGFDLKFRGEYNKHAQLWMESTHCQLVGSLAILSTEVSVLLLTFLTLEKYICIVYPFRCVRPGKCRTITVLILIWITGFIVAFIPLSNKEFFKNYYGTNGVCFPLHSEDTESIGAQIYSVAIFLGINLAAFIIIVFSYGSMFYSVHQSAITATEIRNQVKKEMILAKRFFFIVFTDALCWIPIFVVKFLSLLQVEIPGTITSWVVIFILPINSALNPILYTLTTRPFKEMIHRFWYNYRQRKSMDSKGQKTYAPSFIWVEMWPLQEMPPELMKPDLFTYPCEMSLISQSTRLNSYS
Put plainly: cell-based or functional assay.

Numbered stars: 1 amine (or outer) side, 2 acyl side, 3 side chain; on linkers, the order of the positions; unused ones are H or OH. Square brackets hold non-standard residues; d marks the D form. Side chains are listed from the residue outwards. * marks the point of attachment. TTDS = 4-[3-[2-[2-(3-aminopropoxy)ethoxy]ethoxy]propylamino]-4-oxo-butanoyl; γGlu = O=C(O)[C@H](CCC(=O)[*:2])N[*:1]; Stearoyl = CCCCCCCCCCCCCCCCCC(=O)*; Palmitoyl = CCCCCCCCCCCCCCCC(=O)*; αMeK = C[C@](N)(CCCCN)C(=O)O; AEEA = NCCOCCOCC(=O)O; Aib = CC(C)(N)C(=O)O

Take Ac-LEGREKVRAK(Ac)I[Aib][Aib]EGK([TTDS-TTDS-γGlu-γGlu-γGlu-Stearoyl])STFS[Aib]RKK(Ac)-NH2 [Relaxin peptide analogue of SEQ ID NO: 60]: the “EC50 (nM), OVCAR 5 cells (cAMP)” value was determined as 0.15 nM and the “EMax, OVCAR 5 cells (cAMP)” value was 95%.

Turning to Ac-LEGREKVRK(Ac)QI[Aib][Aib]EGK([TTDS-TTDS-TTDS-γGlu-γGlu-γGlu-Palmitoyl])STWS[Aib]RKK(Ac)-NH2 [Relaxin peptide analogue of SEQ ID NO: 65], the “EC50 (nM), OVCAR 5 cells (cAMP)” value turned out to be 1.19 nM and the “EMax, OVCAR 5 cells (cAMP)” value came out at 95%.

Consider Ac-LEGREKVRAK(Ac)I[Aib][Aib]EGK([TTDS-TTDS-TTDS-γGlu-γGlu-γGlu-Palmitoyl])STWS[Aib]RKK(Ac)-NH2 [Relaxin peptide analogue of SEQ ID NO: 1], for which the “EC50 (nM), OVCAR 5 cells (cAMP)” value is 1.5 nM and the “EMax, OVCAR 5 cells (cAMP)” value is 99%.

As to Ac-LEGREKVRAK(Ac)I[Aib][Aib]EGK([TTDS-TTDS-TTDS-γGlu-γGlu-γGlu-Palmitoyl])STWS[Aib]RK(Ac)K-NH2 [Relaxin peptide analogue of SEQ ID NO: 68], the “EC50 (nM), OVCAR 5 cells (cAMP)” value turned out to be 0.88 nM and the “EMax, OVCAR 5 cells (cAMP)” value was determined as 98%.

As for Ac-LEGREKVRAK(Ac)I[Aib][Aib]EGK([TTDS-TTDS-TTDS-γGlu-γGlu-γGlu-Stearoyl])STFS[αMeK]RAK(Ac)-NH2 [Relaxin peptide analogue of SEQ ID NO: 7], the “EC50 (nM), OVCAR 5 cells (cAMP)” value worked out at 0.07 nM and the “EMax, OVCAR 5 cells (cAMP)” value stood at 95%.

Regarding Ac-LEGREKVRAK(Ac)I[Aib][Aib]EGK([TTDS-TTDS-TTDS-γGlu-γGlu-γGlu-Palmitoyl])SRWS[Aib]RKK(Ac)-NH2 [Relaxin peptide analogue of SEQ ID NO: 64], the “EC50 (nM), OVCAR 5 cells (cAMP)” value was 0.52 nM and the “EMax, OVCAR 5 cells (cAMP)” value was determined as 95%.

B1: Relaxin peptide analogue of SEQ ID NO: 5 (peptide)
peptide: Ac-LEGREKVRAK(Ac)I[Aib][Aib]EGK([AEEA-AEEA-AEEA-AEEA-γGlu-γGlu-γGlu-Palmitoyl])STWS[Aib]RKK(Ac)-NH2
SMILES: CCCCCCCCCCCCCCCC(=O)N[C@@H](CCC(=O)N[C@@H](CCC(=O)N[C@@H](CCC(=O)NCCOCCOCC(=O)NCCOCCOCC(=O)NCCOCCOCC(=O)NCCOCCOCC(=O)NCCCC[C@H](NC(=O)CNC(=O)[C@H](CCC(=O)O)NC(=O)C(C)(C)NC(=O)C(C)(C)NC(=O)[C@@H](NC(=O)[C@H](CCCCNC(C)=O)NC(=O)[C@H](C)NC(=O)[C@H](CCCNC(=N)N)NC(=O)[C@@H](NC(=O)[C@H](CCCCN)NC(=O)[C@H](CCC(=O)O)NC(=O)[C@H](CCCNC(=N)N)NC(=O)CNC(=O)[C@H](CCC(=O)O)NC(=O)[C@H](CC(C)C)NC(C)=O)C(C)C)[C@@H](C)CC)C(=O)N[C@@H](CO)C(=O)N[C@H](C(=O)N[C@@H](Cc1c[nH]c2ccccc12)C(=O)N[C@@H](CO)C(=O)NC(C)(C)C(=O)N[C@@H](CCCNC(=N)N)C(=O)N[C@@H](CCCCN)C(=O)N[C@@H](CCCCNC(C)=O)C(N)=O)[C@@H](C)O)C(=O)O)C(=O)O)C(=O)O
In the case of B1, the “EC50 (nM), OVCAR 5 cells (cAMP)” value came to 9.1 nM and the “EMax, OVCAR 5 cells (cAMP)” value turned out to be 85%.

On to Ac-LEGREKVRAK(Ac)I[Aib]IEGK([TTDS-TTDS-TTDS-γGlu-γGlu-γGlu-Palmitoyl])STWS[Aib]RKK(Ac)-NH2 [Relaxin peptide analogue of SEQ ID NO: 70], for which the “EC50 (nM), OVCAR 5 cells (cAMP)” value is 1.34 nM and the “EMax, OVCAR 5 cells (cAMP)” value worked out at 94%.

With Ac-LEGREKVRAK(Ac)I[Aib][Aib]EGK([TTDS-TTDS-TTDS-γGlu-γGlu-γGlu-Palmitoyl])STF[Aib]RRAK(Ac)-NH2 [Relaxin peptide analogue of SEQ ID NO: 72], the “EC50 (nM), OVCAR 5 cells (cAMP)” value is 0.56 nM and the “EMax, OVCAR 5 cells (cAMP)” value stood at 91%.

As to Ac-LEGRERVRAK(Ac)I[Aib][Aib]EGK([TTDS-TTDS-TTDS-γGlu-γGlu-γGlu-Palmitoyl])STWS[Aib]RKK(Ac)-NH2 [Relaxin peptide analogue of SEQ ID NO: 67], the “EC50 (nM), OVCAR 5 cells (cAMP)” value was 0.48 nM and the “EMax, OVCAR 5 cells (cAMP)” value is 95%.

With Ac-LEGREKVRAK(Ac)I[Aib][Aib]EGK([TTDS-TTDS-TTDS-γGlu-γGlu-γGlu-Palmitoyl])STWK(Ac)[Aib]RAK(Ac)-NH2 [Relaxin peptide analogue of SEQ ID NO: 66], the “EC50 (nM), OVCAR 5 cells (cAMP)” value is 6.31 nM and the “EMax, OVCAR 5 cells (cAMP)” value amounted to 93%.

In the case of Ac-LEGREKVRAK(Ac)I[Aib][Aib]EGK([TTDS-TTDS-TTDS-γGlu-γGlu-γGlu-Palmitoyl])STWS[Aib]RK(Ac)R-NH2 [Relaxin peptide analogue of SEQ ID NO: 69], the “EC50 (nM), OVCAR 5 cells (cAMP)” value was determined as 0.78 nM and the “EMax, OVCAR 5 cells (cAMP)” value stood at 97%.

In the case of Ac-LEGREKVRAK(Ac)I[Aib][Aib]EGK([TTDS-TTDS-TTDS-γGlu-γGlu-γGlu-Palmitoyl])SKWS[Aib]RAK-NH2 [Relaxin peptide analogue of SEQ ID NO: 73], the “EC50 (nM), OVCAR 5 cells (cAMP)” value worked out at 0.2 nM and the “EMax, OVCAR 5 cells (cAMP)” value was found to be 95%.

As to Ac-LEGREKVRAK(Ac)I[Aib][Aib]EGK([TTDS-TTDS-TTDS-γGlu-γGlu-γGlu-Palmitoyl])STWS[Aib]RAK-NH2 [Relaxin peptide analogue of SEQ ID NO: 71], the “EC50 (nM), OVCAR 5 cells (cAMP)” value stood at 0.36 nM and the “EMax, OVCAR 5 cells (cAMP)” value is 95%.

With Ac-LEGREKVRAK(Ac)I[Aib][Aib]EGK([TTDS-TTDS-TTDS-γGlu-γGlu-γGlu-Palmitoyl])SKFS[Aib]RKK(Ac)-NH2 [Relaxin peptide analogue of SEQ ID NO: 79], the “EC50 (nM), OVCAR 5 cells (cAMP)” value was determined as 0.45 nM and the “EMax, OVCAR 5 cells (cAMP)” value amounted to 95%.

As to Ac-LEGREKVRAK(Ac)I[Aib][Aib]EGK([TTDS-TTDS-TTDS-TTDS-γGlu-γGlu-γGlu-Palmitoyl])STFS[αMeK]RAK(Ac)-NH2 [Relaxin peptide analogue of SEQ ID NO: 78], the “EC50 (nM), OVCAR 5 cells (cAMP)” value came out at 0.18 nM and the “EMax, OVCAR 5 cells (cAMP)” value was 99%.

With Ac-LEGRERVRAK(Ac)I[Aib][Aib]EGK([TTDS-TTDS-TTDS-TTDS-γGlu-γGlu-γGlu-Palmitoyl])STFS[Aib]RRK(Ac)-NH2 [Relaxin peptide analogue of SEQ ID NO: 77], the “EC50 (nM), OVCAR 5 cells (cAMP)” value was found to be 0.11 nM and the “EMax, OVCAR 5 cells (cAMP)” value was found to be 98%.

Ac-LEGRERVRAK(Ac)I[Aib][Aib]EGK([TTDS-TTDS-TTDS-TTDS-γGlu-γGlu-γGlu-Palmitoyl])STWS[Aib]RRK(Ac)-NH2 [Relaxin peptide analogue of SEQ ID NO: 75]: the “EC50 (nM), OVCAR 5 cells (cAMP)” value is 0.19 nM and the “EMax, OVCAR 5 cells (cAMP)” value is 97%.

As for Ac-LEGRERVRAK(Ac)I[Aib][Aib]EGK([TTDS-TTDS-TTDS-γGlu-γGlu-γGlu-Palmitoyl])STFS[Aib]RRK(Ac)-NH2 [Relaxin peptide analogue of SEQ ID NO: 76], the “EC50 (nM), OVCAR 5 cells (cAMP)” value was determined as 0.18 nM and the “EMax, OVCAR 5 cells (cAMP)” value is 96%.

As to Ac-LEGREKVRAK(Ac)I[Aib][Aib]EGK([TTDS-TTDS-TTDS-TTDS-γGlu-γGlu-γGlu-Stearoyl])STFS[Aib]RKK(Ac)-NH2 [Relaxin peptide analogue of SEQ ID NO: 59], the “EC50 (nM), OVCAR 5 cells (cAMP)” value is 0.09 nM and the “EMax, OVCAR 5 cells (cAMP)” value was found to be 99%.

Consider Ac-LEGREKVRAK(Ac)I[Aib][Aib]EGK([TTDS-TTDS-TTDS-γGlu-γGlu-γGlu-Stearoyl])STFS[Aib]RKK(Ac)-NH2 [Relaxin peptide analogue of SEQ ID NO: 61], for which the “EC50 (nM), OVCAR 5 cells (cAMP)” value was determined as 0.1 nM and the “EMax, OVCAR 5 cells (cAMP)” value came to 97%.

In the case of Ac-LEGREKVRAK(Ac)I[Aib][Aib]EGK([TTDS-TTDS-TTDS-γGlu-γGlu-γGlu-γGlu-Palmitoyl])STWS[Aib]RKK(Ac)-NH2 [Relaxin peptide analogue of SEQ ID NO: 62], the “EC50 (nM), OVCAR 5 cells (cAMP)” value came to 0.6 nM and the “EMax, OVCAR 5 cells (cAMP)” value came to 98%.

For the molecule Ac-LEGREKVRAK(Ac)I[Aib]IEGK([TTDS-TTDS-TTDS-TTDS-γGlu-γGlu-γGlu-Palmitoyl])STWS[Aib]RKK(Ac)-NH2 [Relaxin peptide analogue of SEQ ID NO: 74], the “EC50 (nM), OVCAR 5 cells (cAMP)” value came out at 0.54 nM and the “EMax, OVCAR 5 cells (cAMP)” value worked out at 94%.

For the molecule Ac-LEGREKVRAK(Ac)I[Aib][Aib]EGK([TTDS-TTDS-TTDS-γGlu-γGlu-γGlu-Palmitoyl])SQWS[Aib]RKK(Ac)-NH2 [Relaxin peptide analogue of SEQ ID NO: 63], the “EC50 (nM), OVCAR 5 cells (cAMP)” value came out at 1.45 nM and the “EMax, OVCAR 5 cells (cAMP)” value was 97%.

Ac-LEGREKVRAK(Ac)I[Aib][Aib]EGK([TTDS-TTDS-γGlu-γGlu-γGlu-Stearoyl])STWS[Aib]RKK(Ac)-NH2 [Relaxin peptide analogue of SEQ ID NO: 6]: the “EC50 (nM), OVCAR 5 cells (cAMP)” value is 0.27 nM and the “EMax, OVCAR 5 cells (cAMP)” value turned out to be 95%.
